8 proteins from FireProtDB can be followed below.

“And” between values parts separate entries of the source, which are not always exact repeats. Equal values may be shown once.

For this data set the following is noted: whole UniProt chain shown.
Setting [1] is: Saccharolobus solfataricus (strain ATCC 35092 / DSM 1617 / JCM 11322 / P2), pH 7, Thermal, DSC, Unknown, reversible: yes.
Setting [2] is: Mus musculus, pH 7.2, 25 °C, Urea, Fluorescence, Sodium phosphate 20 mM, Sodium chloride 100 mM, reversible: Yes.
Where [3] appears, read: Saccharomyces cerevisiae (strain ATCC 204508 / S288c), pH 6, 20 °C, GdnHCl, Fluorescence, Sodium phosphate 0.1 M, reversible: yes.
Where [4] appears, read: Saccharomyces cerevisiae (strain ATCC 204508 / S288c), pH 6, Thermal, DSC, Sodium phosphate 0.1 M, KCl 0.05 M, reversible: yes (70-80%).
Where [5] appears, read: Saccharomyces cerevisiae (strain ATCC 204508 / S288c), pH 7.2, 20 °C, GdnHCl, Fluorescence, Sodium phosphate 0.1 M.

B1: NAD(P)H-dependent FMN reductase LOT6 wild type, Q07923 (protein)
chain: MKVGIIMGSVRAKRVCPEIAAYVKRTIENSEELIDQKLKIQVVDLQQIALPLYEDDDELIPAQIKSVDEYADSKTRSWSRIVNALDIIVFVTPQYNWGYPAALKNAIDRLYHEWHGKPALVVSYGGHGGSKCNDQLQEVLHGLKMNVIGGVAVKIPVGTIPLPEDIVPQLSVHNEEILQLLASCIETTRNK
For the protein B1, the Tm (Saccharomyces cerevisiae (strain ATCC 204508 / S288c), pH 7.5, Thermal, CD, Tris-HCl 100 mM, reversible: No) was 60.2 °C.

B2: DNA-binding protein 7d wild type, P39476 (protein)
chain: MATVKFKYKGEEKEVDISKIKKVWRVGKMISFTYDEGGGKTGRGAVSEKDAPKELLQMLEKQKK
For B2, under “Saccharolobus solfataricus (strain ATCC 35092 / DSM 1617 / JCM 11322 / P2), pH 4.5, Thermal, NMR, Unknown”, the Tm worked out at 60.9 °C. Under “Saccharolobus solfataricus (strain ATCC 35092 / DSM 1617 / JCM 11322 / P2), pH 6.1, 25 °C, GdnHCl, Fluorescence, MES 50 mM, NaCl 100 mM”, the unfolding free energy was determined as 5.93 kcal/mol. Besides, under setting [1], the Tm came out at 99 °C, the “heat capacity change of unfolding” value worked out at 0.75 kcal/mol/K and the “unfolding enthalpy (calorimetric)” value amounted to 65 kcal/mol.

B3: Adapter molecule crk wild type, Q64010 (protein)
chain: MAGNFDSEERSSWYWGRLSRQEAVALLQGQRHGVFLVRDSSTSPGDYVLSVSENSRVSHYIINSSGPRPPVPPSPAQPPPGVSPSRLRIGDQEFDSLPALLEFYKIHYLDTTTLIEPVARSRQGSGVILRQEEAEYVRALFDFNGNDEEDLPFKKGDILRIRDKPEEQWWNAEDSEGKRGMIPVPYVEKYRPASASVSALIGGNQEGSHPQPLGGPEPGPYAQPSVNTPLPNLQNGPIYARVIQKRVPNAYDKTALALEVGELVKVTKINVSGQWEGECNGKRGHFPFTHVRLLDQQNPDEDFS
For B3, under setting [2], the denaturant m value worked out at 0.66 kcal/mol/M and the unfolding free energy was 3.33 kcal/mol.

B4: Cyanovirin-N wild type, P81180 (protein)
chain: LGKFSQTCYNSAIQGSVLTSTCERTNGGYNTSSIDLNSVIENVDGSLKWQPSNFIETCRNTQLAGSSELAAECKTRAQQFVSTKINLDDHIANIDGTLKYE
B4: the Tm (Nostoc ellipsosporum, pH 6, Thermal, CD, Sodium phosphate 10 mM) worked out at 48.5 °C.

B5: Amicyanin wild type, P22364 (protein)
chain: MISATKIRSCLAACVLAAFGATGALADKATIPSESPFAAAEVADGAIVVDIAKMKYETPELHVKVGDTVTWINREAMPHNVHFVAGVLGEAALKGPMMKKEQAYSLTFTEAGTYDYHCTPHPFMRGKVVVE
B5: the Tm (Paracoccus denitrificans, pH 7.5, Thermal, CD, Potassium Phosphate Buffer 100 mM) is 60 °C and 55 °C; the Tm (Paracoccus denitrificans, pH 7.5, Thermal, absorbance, Potassium Phosphate Buffer 10 mM) was 66.4 °C.

B6: Cytochrome c mitochondrial import factor CYC2 wild type, P38909 (protein)
chain: MLWKNYVLSSSRITRRLHKSPRKSSFSKNFFITGCLLTVGAVSSYLTYRYTSERENKHELSPSYFVKYKISHKRDIDSSHFLLEVTPLFKQKVNIWSLMTAENLWSVEIKQPEVMVVRNYTPLPLKFNPASKEIEILKDGDNADGKLSFYIKKYENGEVARWLHHLPKGHIIEIRGPFIDYEFPHLPNELKRSRDCLYMDNRNERGNNVRENSQFIYQPYDIMMFTAGTGIVTALQLLLTESPFRGTIKLFHTDKNIKQLGPLYPILLRLQASNRVQLKIFETDRQTKQDVLKSIQKSITKPYPYKGLLPFSNVNNKNIMPVLALVCGPESYISSISGRKYDLNQGPVGGLLSKEGWNSDNVYKLS
As to B6, the unfolding free energy (Saccharomyces cerevisiae (strain ATCC 204508 / S288c), pH 6, 20 °C, GdnHCl, DSC, Sodium phosphate 0.1 M, reversible: yes) was determined as 4.2 kcal/mol. Besides, under setting [3], the denaturant m value turned out to be 3.2 kcal/mol/M, the “denaturant midpoint (higher = more stable)” value came out at 1.5 M and the unfolding free energy worked out at 4.9 kcal/mol. Also, the unfolding free energy (Saccharomyces cerevisiae (strain ATCC 204508 / S288c), pH 6, 20 °C, GdnHCl, Fluorescence, Sodium phosphate 0.1 M) amounted to 3.8 kcal/mol. For the same protein, under setting [4], the Tm came to 79.4 °C, the “unfolding enthalpy (calorimetric)” value was determined as 113 kcal/mol and the “unfolding enthalpy (van 't Hoff)” value was 140 kcal/mol. Moreover, under setting [5], the “denaturant midpoint (higher = more stable)” value was 1.49 M and the unfolding free energy turned out to be 3.8 kcal/mol.

B7: wild type, Q88HV5 (protein)
chain: MPFQQGLLATPVPAHARHLFFTLQSPEALPAALDALLPQVDGKQLLLGVGAPLAKALGREIPGLRPFPLLDAAVENPSTQHALWLWLRGDERGDLLLRTQALEQALAPALSLADSVDGFLHRGGHDLTGYEDGTENPTDEEAVQAAIAADGSSFAAFQLWKHDLQYFKSLPQADQDNIIGRRLSDNEELDDAPASAHVKRTAQESFEPEAFMVRRSVSWADQRGAGLAFVALGKSFEAFEVQLRRMSGLEDGIIDGLYRFSRPLTGGYYWCPPMSETGVDLSPLLRA
B7: the Tm (Pseudomonas putida (strain ATCC 47054 / DSM 6125 / CFBP 8728 / NCIMB 11950 / KT2440), pH 7.6, Fluorescence spectroscopy) is 65 °C.

B8: Granulocyte-macrophage colony-stimulating factor wild type, P01587 (protein)
chain: MWLQNLLFLGIVVYSLSAPTRSPITVTRPWKHVEAIKEALNLLDDMPVTLNEEVEVVSNEFSFKKLTCVQTRLKIFEQGLRGNFTKLKGALNMTASYYQTYCPPTPETDCETQVTTYADFIDSLKTFLTDIPFECKKPGQK
With B8, the unfolding free energy (Mus musculus, pH 9, 4 °C, Urea, CD, Tris-glycine 50 mM, reversible: yes) was found to be 5.78 kcal/mol.
